In US20140294825A1 (JN BIOSCIENCES, published 2014):
One block for each binder: values may come before it.

Key:
[1] = target: T1, human FcRn (human, UniProt P55899 24-365; P61769 21-119); test: flow cytometry on NS0 cells expressing human FcRn, 1 µg/ml antibody, pH 6.0 and 7.5
T1 construct: whole, on cells; Heterodimer stably expressed on the surface of NS0 cells; also called neonatal Fc receptor; NS0/FcRn cells
Method: (§1) The ability of Ch9G6-IgG1, Ch9G6-IgG1/M and Ch9G6-MVIgG1 antibodies to bind to FcRn in a pH-dependent manner was analyzed by flow cytometry using NS0 cells expressing human FcRn on the cell surface (NS0/FcRn cells). NS0/FcRn transfectants stably expressing human FcRn, a heterodimer composed of the FcRn α chain and β2-microglubulin, on the cell surface was generated following the general procedure described by Hinton et al. (J. Biol. Chem. 279:6213-6216 2004), which is incorporated herein by reference. Ch9G6-IgG1, Ch9G6-IgG1/M and Ch9G6-MVIgG1 at 1 μg/ml were separately incubated with NS0/FcRn cells at pH 6.0 and 7.5 at the primary staining step following the procedure described by Hinton et al. (supra). Antibodies binding to FcRn were detected using PE-labeled goat polyclonal anti-human gamma chain antibody (for Ch9G6-IgG1 and no antibody control) or PE-labeled goat polyclonal anti-human μ chain antibody (for Ch9G6-IgG1/M, Ch9G6-MVIgG1 and no antibody control) at the secondary staining step.
(§2) The ability of Ch9G6-IgG3D, Ch9G6-IgG3D/M and Ch9G6-MVIgG3D antibodies to bind to FcRn in a pH-dependent manner was analyzed by flow cytometry using NS0 cells expressing human FcRn on the cell surface (NS0/FcRn cells). Ch9G6-IgG3D, Ch9G6-Ig3D/M and Ch9G6-MVIgG3D at 1 μg/ml were separately incubated with NS0/FcRn cells at pH 6.0 and 7.5 at the primary staining step as described in Example 4. Antibodies binding to FcRn were detected using PE-labeled goat polyclonal anti-human gamma chain antibody (for Ch9G6-IgG3D and no antibody control) or PE-labeled goat polyclonal anti-human μ chain antibody (for Ch9G6-IgG3D/M, Ch9G6-MVIgG3D and no antibody control) at the secondary staining step.

[2] = target: T2, recombinant human CD30 extracellular region fused at the C-terminus to the human λ2 constant region (human); test: bridging ELISA: CD79a-Fc coated, supernatant, then CD30-Cλ in solution, anti-human λ chain HRP detection; no signal means the anti-CD79a antibody did not hold CD30-Cλ
T2 construct: Cysteine at the second position from the carboxyl terminus of the constant region changed to serine; also called CD30-Cλ
T2 sequence (chain, as listed by the source limits assumed): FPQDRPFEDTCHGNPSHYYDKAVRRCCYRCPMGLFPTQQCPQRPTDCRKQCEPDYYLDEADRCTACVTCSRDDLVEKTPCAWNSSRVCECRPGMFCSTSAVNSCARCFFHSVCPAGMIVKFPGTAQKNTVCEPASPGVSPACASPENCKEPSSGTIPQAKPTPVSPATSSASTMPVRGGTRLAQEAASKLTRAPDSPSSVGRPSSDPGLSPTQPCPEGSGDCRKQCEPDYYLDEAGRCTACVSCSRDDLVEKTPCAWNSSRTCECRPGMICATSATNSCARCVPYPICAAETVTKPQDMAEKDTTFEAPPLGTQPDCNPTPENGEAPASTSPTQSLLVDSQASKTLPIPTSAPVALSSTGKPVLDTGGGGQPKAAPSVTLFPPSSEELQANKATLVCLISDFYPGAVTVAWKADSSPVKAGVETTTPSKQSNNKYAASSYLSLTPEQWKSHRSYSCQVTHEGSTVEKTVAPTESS

[3] = target: T3, recombinant human CD30 extracellular region fused at the C-terminus to the Fc region of human γ1 chain (human); test: bridging ELISA: CD30-Fc coated, supernatant, then CD79a-Cλ in solution, anti-human λ chain HRP detection; no signal means the anti-CD79a antibody was not captured on CD30-Fc
T3 construct: also called CD30-Fc
T3 sequence (chain, as listed by the source limits assumed): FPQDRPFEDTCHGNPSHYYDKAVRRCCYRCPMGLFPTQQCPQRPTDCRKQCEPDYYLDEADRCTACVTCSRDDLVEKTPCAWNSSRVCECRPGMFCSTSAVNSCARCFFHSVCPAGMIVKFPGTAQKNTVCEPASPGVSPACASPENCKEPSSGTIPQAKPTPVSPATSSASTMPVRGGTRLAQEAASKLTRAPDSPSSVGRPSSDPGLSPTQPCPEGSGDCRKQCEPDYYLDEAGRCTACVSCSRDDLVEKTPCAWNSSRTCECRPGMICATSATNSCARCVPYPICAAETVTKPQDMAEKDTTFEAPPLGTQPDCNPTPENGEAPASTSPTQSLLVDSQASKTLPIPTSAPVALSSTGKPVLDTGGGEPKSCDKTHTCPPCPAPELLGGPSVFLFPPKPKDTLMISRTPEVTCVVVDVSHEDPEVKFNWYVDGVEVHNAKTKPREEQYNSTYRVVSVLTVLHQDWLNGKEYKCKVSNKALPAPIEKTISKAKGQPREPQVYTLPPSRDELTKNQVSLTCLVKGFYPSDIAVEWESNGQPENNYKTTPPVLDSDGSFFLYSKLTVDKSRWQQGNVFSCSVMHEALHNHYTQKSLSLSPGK

[4] = target: T1, human FcRn; test: flow cytometry on NS0 cells expressing human FcRn, pH 6.0 and 7.5, PE anti-human µ chain detection
Method: as §1, with “Ch9G6-IgG1, Ch9G6-IgG1/M and Ch9G6-MVIgG1 at 1 μg/ml were separately incubated with NS0/FcRn cells at pH 6.0 and 7.5 at the primary staining step following the procedure described by Hinton et al. (supra).” left out
as §2, with “Ch9G6-IgG3D, Ch9G6-Ig3D/M and Ch9G6-MVIgG3D at 1 μg/ml were separately incubated with NS0/FcRn cells at pH 6.0 and 7.5 at the primary staining step as described in Example 4.” left out

[5] = target: T4, human CD16 (human, UniProt P08637 17-254); test: flow cytometry on HEK293 cells transiently expressing human CD16, PE anti-human µ heavy chain detection
T4 construct: whole, on cells; also called Fcγ receptor type III
T4 sequence (P08637 17-254): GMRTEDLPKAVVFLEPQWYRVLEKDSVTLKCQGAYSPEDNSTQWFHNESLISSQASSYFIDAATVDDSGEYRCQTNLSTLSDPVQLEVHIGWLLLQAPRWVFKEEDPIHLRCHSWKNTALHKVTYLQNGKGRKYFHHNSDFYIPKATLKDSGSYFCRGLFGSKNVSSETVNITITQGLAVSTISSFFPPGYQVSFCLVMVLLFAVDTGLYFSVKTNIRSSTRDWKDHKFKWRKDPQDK

[6] = target: T5, Protein G (Streptococcal, UniProt P19909 303-497); test: Protein G Sepharose column, culture supernatant
T5 construct: Commercial resin; also called Protein G Sepharose column
T5 sequence (P19909 303-497): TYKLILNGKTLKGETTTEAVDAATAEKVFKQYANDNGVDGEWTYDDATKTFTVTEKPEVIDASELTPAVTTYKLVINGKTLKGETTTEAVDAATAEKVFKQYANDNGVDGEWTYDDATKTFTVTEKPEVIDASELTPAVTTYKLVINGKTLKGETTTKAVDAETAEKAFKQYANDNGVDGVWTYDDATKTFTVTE

B2: Ch9G6-IgG1 (antibody)
heavy: not shown
light: DVLMTQIPLSLPVSLGDQASISCRSSQSIVHSNGNTYLEWYLQKPGQSPKLLIYKVSNRFSGVPDRFSGSGSGTDFTLKISRVEAEDLGVYYCFQGSHVPFTFGSGTKLEIKRTVAAPSVFIFPPSDEQLKSGTASVVCLLNNFYPREAKVQWKVDNALQSGNSQESVTEQDSKDSTYSLSSTLTLSKADYEKHKVYACEVTHQGLSSPVTKSFNRGEC
notes: also called chimeric IgG1 form of the mouse anti-human CD79a monoclonal antibody 9G6
binding result [1]: binds

B4: Ch9G6-MVIgG1 (antibody)
heavy: not shown
light: B2 light
notes: also called multivalent anti-CD79a IgG1 antibody
binding result [2]: no binding
binding result [1]: binds
binding result [3]: no binding

B5: Ch9G6-IgG3D/M (antibody)
heavy: QVQLQQSGPELVKPGASVKISCKASGYTFSTSWMNWVKQRPGQGLEWIGRIYPGDGDTNYNGKFKGKATLTADKSSNTAYMQLSSLTSVDSAVYFCERFYYGNTFAMDYWGQGTSVTVSSASTKGPSVFPLAPCSRSTSGGTAALGCLVKDYFPEPVTVSWNSGALTSGVHTFPAVLQSSGLYSLSSVVTVPSSSLGTQTYTCNVNHKPSNTKVDKRVEPKSCDTPPPCPRCPDQDTAIRVFAIPPSFASIFLTKSTKLTCLVTDLTTYDSVTISWTRQNGEAVKTHTNISESHPNATFSAVGEASICEDDWNSGERFTCTVTHTDLPSPLKQTISRPKGVALHRPDVYLLPPAREQLNLRESATITCLVTGFSPADVFVQWMQRGQPLSPEKYVTSAPMPEPQAPGRYFAHSILTVSEEEWNTGETYTCVVAHEALPNRVTERTVDKSTGKPTLYNVSLVMSDTAGTCY
light: B2 light
notes: NS0 cells, purified on anti-human IgM agarose; mixture of species (650, 180, 90 kDa peaks); also called Ch9G6-Ig3D/M
binding result [4]: no binding (tested: 1 µg/ml)
binding result [5]: no binding (tested: 1 µg/ml)
binding result [6]: no binding

Results, then the binder that gave them:

binding result [1]: binds
B1: Ch9G6-MVIgG3D (antibody)
heavy: QVQLQQSGPELVKPGASVKISCKASGYTFSTSWMNWVKQRPGQGLEWIGRIYPGDGDTNYNGKFKGKATLTADKSSNTAYMQLSSLTSVDSAVYFCERFYYGNTFAMDYWGQGTSVTVSSASTKGPSVFPLAPCSRSTSGGTAALGCLVKDYFPEPVTVSWNSGALTSGVHTFPAVLQSSGLYSLSSVVTVPSSSLGTQTYTCNVNHKPSNTKVDKRVEPKSCDTPPPCPRCPAPELLGGPSVFLFPPKPKDTLMISRTPEVTCVVVDVSHEDPEVQFKWYVDGVEVHNAKTKPREEQYNSTFRVVSVLTVLHQDWLNGKEYKCKVSNKALPAPIEKTISKTKGQPREPQVYTLPPSREEMTKNQVSLTCLVKGFYPSDIAVEWESSGQPENNYNTTPPMLDSDGSFFLYSKLTVDKSRWQQGNIFSCSVMHEALHNRFTQKSLSLSPGKDQDTAIRVFAIPPSFASIFLTKSTKLTCLVTDLTTYDSVTISWTRQNGEAVKTHTNISESHPNATFSAVGEASICEDDWNSGERFTCTVTHTDLPSPLKQTISRPKGVALHRPDVYLLPPAREQLNLRESATITCLVTGFSPADVFVQWMQRGQPLSPEKYVTSAPMPEPQAPGRYFAHSILTVSEEEWNTGETYTCVVAHEALPNRVTERTVDKSTGKPTLYNVSLVMSDTAGTCY
light: B2 light
notes: Pentamer or hexamer of the H2L2 unit in native form (NS0 cells, Protein G purified); also called multivalent IgG3 antibody

binding result [1]: binds
B3: Ch9G6-IgG3D (antibody)
heavy: QVQLQQSGPELVKPGASVKISCKASGYTFSTSWMNWVKQRPGQGLEWIGRIYPGDGDTNYNGKFKGKATLTADKSSNTAYMQLSSLTSVDSAVYFCERFYYGNTFAMDYWGQGTSVTVSSASTKGPSVFPLAPCSRSTSGGTAALGCLVKDYFPEPVTVSWNSGALTSGVHTFPAVLQSSGLYSLSSVVTVPSSSLGTQTYTCNVNHKPSNTKVDKRVEPKSCDTPPPCPRCPAPELLGGPSVFLFPPKPKDTLMISRTPEVTCVVVDVSHEDPEVQFKWYVDGVEVHNAKTKPREEQYNSTFRVVSVLTVLHQDWLNGKEYKCKVSNKALPAPIEKTISKTKGQPREPQVYTLPPSREEMTKNQVSLTCLVKGFYPSDIAVEWESSGQPENNYNTTPPMLDSDGSFFLYSKLTVDKSRWQQGNIFSCSVMHEALHNRFTQKSLSLSPGK
light: B2 light
notes: NS0 cells, Protein G purified; monomer of about 150 kDa; also called chimeric anti-CD79a IgG3 monoclonal antibody (first, second and third hinge regions eliminated)
